The record followed here is patent publication US20170137490A1, “PEPTIDES, AND METHODS AND APPARATUS UTILISING SAME” (The University of Manchester, priority 2014, published 2017).

The assay concerns human anti-PLA2R autoantibodies. The assay can be described thus: Western blotting of PLA2R fragments with human anti-PLA2R autoantibodies. In kind it is binding.

B1: mouse PLA2R: recombinant mouse PLA2R (R&D) (protein)
chain: QDLTHIQEPSLEWRDKGIFIIQSESLKTCIQAGKSVLTLENCKQPNEHMLWKWVSDDHLFNVGGSGCLGLNISALEQPLKLYECDSTLISLRWHCDRKMIEGPLQYKVQVKSDNTVVARKQIHRWIAYTSSGGDICEHPSRDLYTLKGNAHGMPCVFPFQFKGHWHHDCIREGQKEHLLWCATTSRYEEDEKWGFCPDPTSMKVFCDATWQRNGSSRICYQFNLLSSLSWNQAHSSCLMQGGALLSIADEDEEDFIRKHLSKVVKEVWIGLNQLDEKAGWQWSDGTPLSYLNWSQEITPGPFVEHHCGTLEVVSAAWRSRDCESTLPYICKRDLNHTAQGILEKDSWKYHATHCDPDWTPFNRKCYKLKKDRKSWLGALHSCQSNDSVLMDVASLAEVEFLVSLLRDENASETWIGLSSNKIPVSFEWSSGSSVIFTNWYPLEPRILPNRRQLCVSAEESDGRWKVKDCKERLFYICKKAGQVPADEQSGCPAGWERHGRFCYKIDTVLRSFEEASSGYYCSPALLTITSRFEQAFITSLISSVAEKDSYFWIALQDQNNTGEYTWKTVGQREPVQYTYWNTRQPSNRGGCVVVRGGSSLGRWEVKDCSDFKAMSLCKTPVKIWEKTELEERWPFHPCYMDWESATGLASCFKVFHSEKVLMKRSWREAEAFCEEFGAHLASFAHIEEENFVNELLHSKFNWTQERQFWIGFNRRNPLNAGSWAWSDGSPVVSSFLDNAYFEEDAKNCAVYKANKTLLPSNCASKHEWICRIPRDVRPKFPDWYQYDAPWLFYQNAEYLFHTHPAEWATFEFVCGWLRSDFLTIYSAQEQEFIHSKIKGLTKYGVKWWIGLEEGGARDQIQWSNGSPVIFQNWDKGREERVDSQRKRCVFISSITGLWGTENCSVPLPSICKRVKIWVIEKEKPPTQPGTCPKGWLYFNYKCFLVTIPKDPRELKTWTGAQEFCVAKGGTLVSIKSELEQAFITMNLFGQTTNVWIGLQSTNHEKWVNGKPLVYSNWSPSDIINIPSYNTTEFQKHIPLCALMSSNPNFHFTGKWYFDDCGKEGYGFVCEKMQDTLEHHVNVSDTSAIPSTLEYGNRTYKIIRGNMTWYAAGKSCRMHRAELASIPDAFHQAFLTVLLSRLGHTHWIGLSTTDNGQTFDWSDGTKSPFTYWKDEESAFLGDCAFADTNGRWHSTACESFLQGAICHVVTETKAFEHPGLCSETSVPWIKFKGNCYSFSTVLDSRSFEDAHEFCKSEGSNLLAIRDAAENSFLLEELLAFGSSVQMVWLNAQFDNNNKTLRWFDGTPTEQSNWGLRKPDMDHLKPHPCVVLRIPEGIWHFTPCEDKKGFICKMEAGIPAVTAQPEKGLSHS
As to B1, the “recognition by human anti-PLA2R autoantibodies” value is “fail to react”.
